B1: Receptor tyrosine-protein kinase erbB-4 (Homo sapiens), Q15303 (parent)
chain: MKPATGLWVWVSLLVAAGTVQPSDSQSVCAGTENKLSSLSDLEQQYRALRKYYENCEVVMGNLEITSIEHNRDLSFLRSVREVTGYVLVALNQFRYLPLENLRIIRGTKLYEDRYALAIFLNYRKDGNFGLQELGLKNLTEILNGGVYVDQNKFLCYADTIHWQDIVRNPWPSNLTLVSTNGSSGCGRCHKSCTGRCWGPTENHCQTLTRTVCAEQCDGRCYGPYVSDCCHRECAGGCSGPKDTDCFACMNFNDSGACVTQCPQTFVYNPTTFQLEHNFNAKYTYGAFCVKKCPHNFVVDSSSCVRACPSSKMEVEENGIKMCKPCTDICPKACDGIGTGSLMSAQTVDSSNIDKFINCTKINGNLIFLVTGIHGDPYNAIEAIDPEKLNVFRTVREITGFLNIQSWPPNMTDFSVFSNLVTIGGRVLYSGLSLLILKQQGITSLQFQSLKEISAGNIYITDNSNLCYYHTINWTTLFSTINQRIVIRDNRKAENCTAEGMVCNHLCSSDGCWGPGPDQCLSCRRFSRGRICIESCNLYDGEFREFENGSICVECDPQCEKMEDGLLTCHGPGPDNCTKCSHFKDGPNCVEKCPDGLQGANSFIFKYADPDRECHPCHPNCTQGCNGPTSHDCIYYPWTGHSTLPQHARTPLIAAGVIGGLFILVIVGLTFAVYVRRKSIKKKRALRRFLETELVEPLTPSGTAPNQAQLRILKETELKRVKVLGSGAFGTVYKGIWVPEGETVKIPVAIKILNETTGPKANVEFMDEALIMASMDHPHLVRLLGVCLSPTIQLVTQLMPHGCLLEYVHEHKDNIGSQLLLNWCVQIAKGMMYLEERRLVHRDLAARNVLVKSPNHVKITDFGLARLLEGDEKEYNADGGKMPIKWMALECIHYRKFTHQSDVWSYGVTIWELMTFGGKPYDGIPTREIPDLLEKGERLPQPPICTIDVYMVMVKCWMIDADSRPKFKELAAEFSRMARDPQRYLVIQGDDRMKLPSPNDSKFFQNLLDEEDLEDMMDAEEYLVPQAFNIPPPIYTSRARIDSNRSEIGHSPPPAYTPMSGNQFVYRDGGFAAEQGVSVPYRAPTSTIPEAPVAQGATAEIFDDSCCNGTLRKPVAPHVQEDSSTQRYSADPTVFAPERSPRGELDEEGYMTPMRDKPKQEYLNPVEENPFVSRRKNGDLQALDNPEYHNASNGPPKAEDEYVNEPLYLNTFANTLGKAEYLKNNILSMPEKAKKAFDNPDYWNHSLPPRSTLQHPDYLQEYSTKYFYKQNGRIRPIVAENPEYLSEFSLKPGTVLPPPPYRHRNTVV
partner: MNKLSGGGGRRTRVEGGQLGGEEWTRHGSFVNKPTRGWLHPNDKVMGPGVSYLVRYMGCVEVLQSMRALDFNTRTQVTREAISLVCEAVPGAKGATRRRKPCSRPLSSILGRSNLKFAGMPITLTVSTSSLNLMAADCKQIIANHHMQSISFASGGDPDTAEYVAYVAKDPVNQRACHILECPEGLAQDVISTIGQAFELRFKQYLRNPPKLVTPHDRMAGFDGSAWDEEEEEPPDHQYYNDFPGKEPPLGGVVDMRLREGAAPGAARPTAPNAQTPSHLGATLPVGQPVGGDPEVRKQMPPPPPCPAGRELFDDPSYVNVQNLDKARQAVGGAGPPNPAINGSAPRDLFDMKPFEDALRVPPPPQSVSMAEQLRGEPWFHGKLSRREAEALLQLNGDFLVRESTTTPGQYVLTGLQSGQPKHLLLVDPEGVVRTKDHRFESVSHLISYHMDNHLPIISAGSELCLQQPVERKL
B2: Beta-arrestin-2 (Homo sapiens), P32121-4 (parent)
chain: MGEKPGTRVFKKSSPNCKLTVYLGKRDFVDHLDKVDPVDGVVLVDPDYLKDRKVFVTLTCAFRYGREDLDVLGLSFRKDLFIATYQAFPPVPNPPRPPTRLQDRLLRKLGQHAHPFFFTVRMPLPSEGQGAGAGTVSGVGIPQNLPCSVTLQPGPEDTGKACGVDFEIRAFCAKSLEEKSHKRNSVRLVIRKVQFAPEKPGPQPSAETTRHFLMSDRSLHLEASLDKELYYHGEPLNVNVHVTNNSTKTVKKIKVSVRQYADICLFSTAQYKCPVAQLEQDDQVSPSSTFCKVYTITPLLSDNREKRGLALDGKLKHEDTNLASSTIVKEGANKEVLGILVSYRVKVKLVVSRGGDVSVELPFVLMHPKPHDHIPLPRPQSAAPETDVPVDTNLIEFDTNYATDDDIVFEDFARLRLKGMKDDDYDDQLC

The variants in the first assay derive from B1. The following applies: with SHC1, P29353-7.
For E542K, the “effect of a mutation on the interaction” value is given as “increasing interaction strength”.
For the variant E872K, the “effect of a mutation on the interaction” value is “increasing interaction strength”.

A further assay covers variants of B2. The following applies: with adrb2_human ADRB2, P07550.
With MGEKPGTRVFKKSSPNCKLTVYLGKRDFVDHLDKVDPVDGVVLVDPDYLKDRKVFVTLTCAFRYGREDLDVLGLSFRKDLFIATYQAFPPVPNPPRPPTRLQDRLLRKLGQHAHPFFFTVRMPLPSEGQGAGAGTVSGVGIPQNLPCSVTLQPGPEDTGKACGVDFEIEAFCAKSLEEKSHKRNSVRLVIRKVQFAPEKPGPQPSAETTRHFLMSDRSLHLEASLDKELYYHGEPLNVNVHVTNNSTKTVKKIKVSVRQYADICLFSTAQYKCPVAQLEQDDQVSPSSTFCKVYTITPLLSDNREKRGLALDGKLKHEDTNLASSTIVKEGANKEVLGILVSYRVKVKLVVSRGGDVSVELPFVLMHPKPHDHIPLPRPQSAAPETDVPVDTNLIEFDTNYATDDDIVFEDFARLRLKGMKDDDYDDQLC [R169E], the “effect of a mutation on the interaction” value was “decreasing interaction strength”.

The values are drawn from IntAct's records for PubMed 24658140.
